Laboratory results as given in the RNAGym collection of RNA variant scans (doi:10.1073/pnas.2313332121).

B1: TPR t1 (parent)
chain: GACCAAUCUGCCCUCAGAGCUCGAGAACAUCUUCGGAUGCAGAGGAGGCAGGCUUCGGUGGCGCGAUAGCGCCAACGUCCUCAACCUCCAAUGCAUCCCACCACAUGAUGAUGCCUGAAGAGCCUUGGUUUUUUG

Variants of: B1
Assay: polymerase ribozyme fitness, log enrichment relative to wild type (log ratio); higher = more active; in vitro selection for triplet polymerase activity
Method in brief: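 Both subunits of a heterodimeric triplet polymerase ribozyme were given their own mutant library, built by PCR and transcribed. Each library was annealed with a biotinylated primer, the partner subunit and triplets, incubated frozen at −7 °C, and its extended constructs gel-excised, captured on streptavidin beads and amplified by RT-PCR, all in one round done in triplicate. Fitness is the logarithm of genotype enrichment relative to wild-type enrichment, with replicates averaged by inverse-variance weighting. That logarithm is base 2, and Illumina-sequenced genotypes needed ≥10 input reads and ≥1 read per output.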

**Q.** Which “polymerase ribozyme fitness (log ratio)” value does the source give for GACCAAUCUGCCCUCAGAGCUCGAGAACAUCUUCGGAUGCAGAGGAGGCAGGCUUCGGUGGCUCGAUAGCGCCAACGUCCUCAACCUCCAAUGCAUCCCACCGCAUGAUGAUGCCUGAAGAGCCUUGGUUUUUUG here?
**A.** Its value is -5.82.

**Q.** For GACCAAUCUGCCCUCAGAGCUCGAGAACAUCUUCGGAUGCAGAGGAGGCAGGCUUCGGUGGCCCGAUAGCGCCAACGUCCUCAACCUCCAAUGCAUCCCACCACAUGAUGAUGCCUGAAGAGCCUUUGUUUUUUG, which “polymerase ribozyme fitness (log ratio)” value is on record?
**A.** Its value is -1.97.

**Q.** Which “polymerase ribozyme fitness (log ratio)” value does the source give for GACCAAUCUGCCCUCAGAGCUCGAGAACAUCUUCGGAUGCAGAGGAGGCAGGCUUCGGUGGCUCGAUAGCGCCAACGUCCUCAACCUCCAAUGCAUCCCACCACAUGAUGCUGCCUGAAGAGCCUUGGUUUUUUG here?
**A.** The value was -1.67.

**Q.** With GACCAAUCUGCCCUCAGAGCUCGAGAACAUCUUCGGAUGCAGAGGAGGCAGGCUUCGGUGGCCCGAUAGCGCCAACGUCCUCAACCUCCAAUGCAUCCCACCACAUGAUAAUGCCUGAAGAGCCUUGGUUUUUUG as the variant, how does the “polymerase ribozyme fitness (log ratio)” value read?
**A.** Its value is -1.89.

**Q.** Which “polymerase ribozyme fitness (log ratio)” value does the source give for GACCAAUCUGCCCUCAGAGCUCGAGAACAUCUUCGGAUGCAGAGGAGGCAGGCUUCGGUGGCUCGAUAGCGCCAACGUCCUCUACCUCCAAUGCAUCCCAGCACAUGAUGAUGCCUGAAGAGCCUUGGUUUUUUG here?
**A.** Its value is -2.97.

**Q.** For GACCAAUCUGCCCUCAGAGCUCGAGAACAUCUUCGGAUGCAGAGGAGGCAGGCUUCGGUGGCUCGAUAGCGCCAACGUCCUCAACCUCCAAUGCAUCCCACCACAUGAUGAUGCCUGAAGAACCUUGGUUUUUUG, which “polymerase ribozyme fitness (log ratio)” value is on record?
**A.** The value was -2.28.

**Q.** Which “polymerase ribozyme fitness (log ratio)” value does the source give for GACCAAUCUGCCCUCAGAGCUCGAGAACAUCUUCGGAUGCAGAGGAGGCAGGCUUCGGUGGCCCGAUAGCGCCAACGUCCUCAACCUCCAAUGCAUCCCACCACAUGAUGAUGCCUGAAGAGCCUUGGUAUUUUG here?
**A.** The value was -0.551.

**Q.** With GACCAAUCUGCCCUCAGAGCUCGAGAACAUCUUCGGAUGCAGAGGAGGCAGGCUUCGGUGGCCCGAUAGCGCCAACGUCCUCAACCUCCAAUGCAUCCCACCACAUGAUUAUGCCUGAAGAGUCUUGCUUUUUUG as the variant, how does the “polymerase ribozyme fitness (log ratio)” value read?
**A.** The value was -5.59.

**Q.** Which “polymerase ribozyme fitness (log ratio)” value does the source give for GACCAAUCUGCCCUCAGAGCUCGAGAACAUCUUCGGAUGCAGAGGAGGCAGGCUUCGGUGGCUCGAUAGGGCCAACGUCCUCAACCUCCAAUGCAUCCCACCACAUGAUGAUGCCUGGAGAGCCAUGGUUUUUUG here?
**A.** Its value is -1.35.

**Q.** With GACCAAUCUGCCCUCAGAGCUCGAGAACAUCUUCGGAUGCAGAGGAGGCAGGCUUCGGUGGCUCGAUAGCGCCAACGUCCUCAACCUCCAAUACAUCCCACCACAUGAUGAUGCCUGAAGAGCAUUGGUUUUUUG as the variant, how does the “polymerase ribozyme fitness (log ratio)” value read?
**A.** Its value is 0.423.

**Q.** For GACCAAUCUGCCCUCAGAGCUCGAGAACAUCUUCGGAUGCAGAGGAGGCAGGCUUCGGUGGCCCGAUAGCGCCAACGUCCUCAACCUCCAAUGCAUCCCACCACAUGAUGAUGCCUGAACAGCCUUGGUUAUUUG, which “polymerase ribozyme fitness (log ratio)” value is on record?
**A.** Its value is 0.5.

**Q.** For GACCAAUCUGCCCUCAGAGCUCGAGAACAUCUUCGGAUGCAGAGGAGGCAGGCUUCGGUGGCUCGAUAGCGUCAACGUCCUCAACCUCCAAUGCAUCCCACCACAUGAUGAUGCAUGAAGAGCCUUGGUUUUUUG, which “polymerase ribozyme fitness (log ratio)” value is on record?
**A.** The value was -1.23.

**Q.** For GACCAAUCUGCCCUCAGAGCUCGAGAACAUCUUCGGAUGCAGAGGAGGCAGGCUUCGGUGGCUCGAUAGCGCCAACGUCCUCAACCUCCAAUGCAUCCCACCACAUGAUGAUGCCUUAAGAGCCUUGGGUUUUUG, which “polymerase ribozyme fitness (log ratio)” value is on record?
**A.** Its value is -6.2.

**Q.** Which “polymerase ribozyme fitness (log ratio)” value does the source give for GACCAAUCUGCCCUCAGAGCUCGAGAACAUCUUCGGAUGCAGAGGAGGCAGGCUUCGGUGGCUCGAUAGCGCCAACGUCCUCAACCUCCAAUGCAUCCCACCACAUGAUGAUGCCUUAAGAGCCUUGGUUUUUUG here?
**A.** Its value is -2.02.

**Q.** Which “polymerase ribozyme fitness (log ratio)” value does the source give for GACCAAUCUGCCCUCAGAGCUCGAGAACAUCUUCGGAUGCAGAGGAGGCAGGCUUCGGUGGCUCGAUAGCGCCAACGUCCUCAAUCUCCAAUGCAUCCCACCACAUGAUUAUGCCUGAAGAGCCUUGGUUUUUUG here?
**A.** Its value is -4.39.

**Q.** For GACCAAUCUGCCCUCAGAGCUCGAGAACAUCUUCGGAUGCAGAGGAGGCAGGCUUCGGUGGCUCGAUAGCGCCAACGUCCUCAACCUCCAAUGCAUCCCACCACAUGAUGAUGGCUUAAGAGCCUUGGUUUUUUG, which “polymerase ribozyme fitness (log ratio)” value is on record?
**A.** Its value is -5.98.

**Q.** With GACCAAUCUGCCCUCAGAGCUCGAGAACAUCUUCGGAUGCAGAGGAGGCAGGCUUCGGUGGCUCGAUAGCGCUAACGUCCUCAACCUCCAAUGCAUCCCACCACAUGAUGAUGCCUGAAGAGCCUUGGUUUUUUG as the variant, how does the “polymerase ribozyme fitness (log ratio)” value read?
**A.** Its value is -2.45.

**Q.** With GACCAAUCUGCCCUCAGAGCUCGAGAACAUCUUCGGAUGCAGAGGAGGCAGGCUUCGGUGGCUCGAUAGCGCCAACGUCCUCAACCUCCAAUGCAUCCCACCAAAUGAUGAUGCCUGAAGAGCCUUGGUUUUUUG as the variant, how does the “polymerase ribozyme fitness (log ratio)” value read?
**A.** The value was -2.5.

**Q.** For GACCAAUCUGCCCUCAGAGCUCGAGAACAUCUUCGGAUGCAGAGGAGGCAGGCUUCGGUGGCCCGAUAGCGCCAACGUCCUCAACCUCCAAUGCAUCCCACCACAUGAUGAUGCCUGAAGAACCUUGGUUUUUUG, which “polymerase ribozyme fitness (log ratio)” value is on record?
**A.** Its value is -0.479.

**Q.** For GACCAAUCUGCCCUCAGAGCUCGAGAACAUCUUCGGAUGCAGAGGAGGCAGGCUUCGGUGGCUCGAUAGCGCCAACGUCCUCAACCUCCAAUGCAUCCCACCACAUGAUGAUGCCUGAAGCGCCUUGGUUUUUUG, which “polymerase ribozyme fitness (log ratio)” value is on record?
**A.** The value was 0.0306.

**Q.** For GACCAAUCUGCCCUCAGAGCUCGAGAACAUCUUCGGAUGCAGAGGAGGCAGGCUUCGGUGGCUCGAUAGCGCCAACGUCCUCAACCUCCAAUGCAUCCCACCACAUGAUGAUGCCUGAAGUGCCUUGGUUUUUUG, which “polymerase ribozyme fitness (log ratio)” value is on record?
**A.** The value was 0.749.
